Laboratory results taken from paper doi:10.1101/2021.02.11.430706.

How the values were obtained:
[1] = biological target: MtCNNMΔC R235L (Methanoculleus thermophilus); test: crystal structure
[2] = biological target: MtCNNMΔC_(Δloop) (Methanoculleus thermophilus CNNM, residues 1-322 Δ259-262) (Methanoculleus thermophilus); test: crystal structure

| Substance | stoichiometry N [1] | stoichiometry N [2] |
| --- | --- | --- |
| MtCNNMΔC R235L (domain or fragment) | 2 | – |
| MtCNNMΔC_(Δloop) (Methanoculleus thermophilus CNNM, residues 1-322 Δ259-262) (domain or fragment) | – | 2 |
